Test results taken from publication PMC2796082.
Read-outs that look alike come from different tables or passages of the source.

T1: TGF-β2
T1 sequence (P61812 303-414, species assumed, looked up): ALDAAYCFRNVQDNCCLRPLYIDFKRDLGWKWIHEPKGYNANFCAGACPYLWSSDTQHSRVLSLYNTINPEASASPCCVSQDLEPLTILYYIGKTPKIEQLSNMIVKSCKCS

T2: TGF-β3
T2 sequence (P10600 301-412, species assumed, looked up): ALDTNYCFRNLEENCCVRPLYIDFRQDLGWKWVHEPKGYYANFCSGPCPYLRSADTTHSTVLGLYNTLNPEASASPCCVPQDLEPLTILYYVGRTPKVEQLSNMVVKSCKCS


Assays:
Assay in all cases: SPR
TGF-β1 [1] = biological target: TGF-β1
Sequence of TGF-β1 (P01137 279-390): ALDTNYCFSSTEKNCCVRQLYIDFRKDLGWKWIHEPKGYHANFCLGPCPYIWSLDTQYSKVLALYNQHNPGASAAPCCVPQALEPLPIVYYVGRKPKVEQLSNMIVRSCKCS

TGF-β2 [2] = biological target: T1, TGF-β2
TGF-β3 [3] = biological target: T2, TGF-β3
TGF-β1 [4] = biological target: TGF-β1; remark: listed apart in the source
TGF-β2 [5] = biological target: T1, TGF-β2; remark: listed apart in the source
TGF-β3 [6] = biological target: T2, TGF-β3; remark: listed apart in the source

Row | Binder | Kd (TGF-β1 [1]) [nM] | Kd (TGF-β2 [2]) [nM] | Kd (TGF-β3 [3]) [nM] | Kd (TGF-β1 [4]) [nM] | Kd (TGF-β2 [5]) [nM] | Kd (TGF-β3 [6]) [nM]
1 | Recombinant soluble betaglycan (receptor, glycoprotein, devoid of GAG chains) GPEPSTRCELSPINASHPVQALMESFTVLSGCASRGTTGLPREVHVLNLRSTDQGPGQRQREVTLHLNPIASVHTHHKPIVFLLNSPQPLVWHLKTERLAAGVPRLFLVSEGSVVQFPSGNFSLTAETEERNFPQENEHLLRWAQKEYGAVTSFTELKIARNIYIKVGEDQVFPPTCNIGKNFLSLNYLAEYLQPKAAEGCVLPSQPHEKEVHIIELITPSSNPYSAFQVDIIVDIRPAQEDPEVVKNLVLILKCKKSVNWVIKSFDVKGNLKVIAPNSIGFGKESERSMTMTKLVRDDIPSTQENLMKWALDNGYRPVTSYTMAPVANRFHLRLENNEEMRDEEVHTIPPELRILLDPDHPPALDNPLFPGEGSPNGGLPFPFPDIPRRGWKEGEDRIPRPKQPIVPSVQLLPDHREPEEVQGGVDIALSVKCDHEKMVVAVDKDSFQTNGYSGMELTLLDPSCKAKMNGTHFVLESPLNGCGTRHRRSTPDGVVYYNSIVVQAPSPGDSSGWPDGYEDLESGDNGFPGDGDEGETAPLSRAGVVVFNCSLRQLRNPSGFQGQLDGNATFNMELYNTDLFLVPSPGVFSVAENEHVYVEVSVTKADQDLGFAIQTCFLSPYSNPDRMSDYTIIENICPKDDSVKFYSSKRVHFPIPHAEVDKKRFSFLFKSVFNTSLLFLHCELTLCSRKKGSLKLPRCVTPDDACTSLDATMIWTMMQNKKTFTKPLAVVLQVDYKENVPSTKDSSPIPPPPPQIFHGLDTLTV | 95 | 36 | 143 | – | – | –
2 | Sol Δ10, soluble betaglycan endoglin-like domain (domain or fragment) GPEPSTRCELSPINASHPVQALMESFTVLSGCASRGTTGLPREVHVLNLRSTDQGPGQRQREVTLHLNPIASVHTHHKPIVFLLNSPQPLVWHLKTERLAAGVPRLFLVSEGSVVQFPSGNFSLTAETEERNFPQENEHLLRWAQKEYGAVTSFTELKIARNIYIKVGEDQVFPPTCNIGKNFLSLNYLAEYLQPKAAEGCVLPSQPHEKEVHIIELITPSSNPYSAFQVDIIVDIRPAQEDPEVVKNLVLILKCKKSVNWVIKSFDVKGNLKVIAPNSIGFGKESERSMTMTKLVRDDIPSTQENLMKWALDNGYRPVTSYTMAPVANRFHLRLENNEEMRDEEVHTIPPELRILLDPDHPPALDNPLFPGEGSPNGGLPFPFPD | 1900 | – | 5800 | – | – | –
3 | Sol Δ11, soluble betaglycan uromodulin-like domain (domain or fragment) GPEPSTRCELSPINASHPVQAIPRRGWKEGEDRIPRPKQPIVPSVQLLPDHREPEEVQGGVDIALSVKCDHEKMVVAVDKDSFQTNGYSGMELTLLDPSCKAKMNGTHFVLESPLNGCGTRHRRSTPDGVVYYNSIVVQAPSPGDSSGWPDGYEDLESGDNGFPGDGDEGETAPLSRAGVVVFNCSLRQLRNPSGFQGQLDGNATFNMELYNTDLFLVPSPGVFSVAENEHVYVEVSVTKADQDLGFAIQTCFLSPYSNPDRMSDYTIIENICPKDDSVKFYSSKRVHFPIPHAEVDKKRFSFLFKSVFNTSLLFLHCELTLCSRKKGSLKLPRCVTPDDACTSLDATMIWTMMQNKKTFTKPLAVVLQVDYKENVPSTKDSSPIPPPPPQIFH | 9700 | 2600 | 5800 | 2900 | 2200 | 4400
